{"source": "patent US20240425567A1", "key": {"[1]": {"target": "antigen of the binding ELISA (not given)", "assay": "binding ELISA relative to reference standard; 2 to 8 C upright, initial"}, "[2]": {"target": "antigen of the binding ELISA (not given)", "assay": "binding ELISA relative to reference standard; 40 C inverted, 1 month"}, "[3]": {"target": "antigen of the binding ELISA (not given)", "assay": "binding ELISA relative to reference standard; 40 C inverted, 0.5 month"}, "[4]": {"target": "antigen of the binding ELISA (not given)", "assay": "binding ELISA relative to reference standard; 25 C inverted, 3 months"}, "[5]": {"target": "antigen of the binding ELISA (not given)", "assay": "binding ELISA relative to reference standard; 25 C upright, 6 months"}, "[6]": {"target": "antigen of the binding ELISA (not given)", "assay": "binding ELISA relative to reference standard; 25 C inverted, initial"}, "[7]": {"target": "antigen of the binding ELISA (not given)", "assay": "binding ELISA relative to reference standard; 25 C inverted, 2 months"}, "[8]": {"target": "antigen of the binding ELISA (not given)", "assay": "binding ELISA relative to reference standard; 2 to 8 C inverted, initial"}, "[9]": {"target": "antigen of the binding ELISA (not given)", "assay": "binding ELISA relative to reference standard; 25 C upright, initial"}, "[10]": {"target": "antigen of the binding ELISA (not given)", "assay": "binding ELISA relative to reference standard; 2 to 8 C inverted, 6 months"}, "[11]": {"target": "antigen of the binding ELISA (not given)", "assay": "binding ELISA relative to reference standard; 2 to 8 C inverted, 1 month"}, "[12]": {"target": "antigen of the binding ELISA (not given)", "assay": "binding ELISA relative to reference standard; 40 C inverted, initial"}, "[13]": {"target": "antigen of the binding ELISA (not given)", "assay": "binding ELISA relative to reference standard; 25 C inverted, 0.5 month"}, "[14]": {"target": "antigen of the binding ELISA (not given)", "assay": "binding ELISA relative to reference standard; 25 C inverted, 1 month"}, "[15]": {"target": "antigen of the binding ELISA (not given)", "assay": "binding ELISA relative to reference standard; 2 to 8 C inverted, 12 months"}, "[16]": {"target": "antigen of the binding ELISA (not given)", "assay": "binding ELISA relative to reference standard; 2 to 8 C inverted, 3 months"}}, "data": [{"binder": "ADI-58125 (antibody, human IgG1, lambda, V domains shown) VH: EVQLVESGGGLVKPGGSLRLSCAASGFTFSSYYMNWVRQAPGKGLEWVSSISEDGYSTYYPDSLKGRFTISRDSAKNSLYLQMNSLRADDTAVYYCARDFSGHTAWAGTGFEYWGQGTLVTVSS VL: QSVLTQPPSVSGAPGQRITISCTGSSSNIGAGYDVHWYQQLPGTAPKLLIYGSSSRNSGVPDRFSGSKSGTSASLAITGLQAEDEADYYCQSYDSSLSVLYTFGTGTKVTVLG", "values": [{"measurement": "Binding ELISA, % of reference standard activity (% of reference standard activity)", "setting": "[1]", "value": 114}, {"measurement": "Binding ELISA, % of reference standard activity (% of reference standard activity)", "setting": "[2]", "value": 94}, {"measurement": "Binding ELISA, Reference Standard activity % (% of reference standard activity)", "setting": "[2]", "value": 94}, {"measurement": "Binding ELISA, % of reference standard activity (% of reference standard activity)", "setting": "[3]", "value": 99}, {"measurement": "Binding ELISA, Reference Standard activity % (% of reference standard activity)", "setting": "[3]", "value": 99}, {"measurement": "Binding ELISA, % of reference standard activity (% of reference standard activity)", "setting": "[4]", "value": 94}, {"measurement": "Binding ELISA, % of reference standard activity (% of reference standard activity)", "setting": "[5]", "value": 91}, {"measurement": "Binding ELISA, % of reference standard activity (% of reference standard activity)", "setting": "[6]", "value": 114}, {"measurement": "Binding ELISA, Reference Standard activity % (% of reference standard activity)", "setting": "[6]", "value": 114}, {"measurement": "Binding ELISA, % of reference standard activity (% of reference standard activity)", "setting": "[7]", "value": 111}, {"measurement": "Binding ELISA, Reference Standard activity % (% of reference standard activity)", "setting": "[7]", "value": 111}, {"measurement": "Binding ELISA, % of reference standard activity (% of reference standard activity)", "setting": "[8]", "value": 114}, {"measurement": "Binding ELISA, % of reference standard activity (% of reference standard activity)", "setting": "[9]", "value": 114}, {"measurement": "Binding ELISA, Reference Standard activity % (% of reference standard activity)", "setting": "[9]", "value": 114}, {"measurement": "Binding ELISA, % of reference standard activity (% of reference standard activity)", "setting": "[10]", "value": 108}, {"measurement": "Binding ELISA, % of reference standard activity (% of reference standard activity)", "setting": "[11]", "value": 101}, {"measurement": "Binding ELISA, % of reference standard activity (% of reference standard activity)", "setting": "[12]", "value": 114}, {"measurement": "Binding ELISA, Reference Standard activity % (% of reference standard activity)", "setting": "[12]", "value": 114}, {"measurement": "Binding ELISA, % of reference standard activity (% of reference standard activity)", "setting": "[13]", "value": 109}, {"measurement": "Binding ELISA, Reference Standard activity % (% of reference standard activity)", "setting": "[13]", "value": 109}, {"measurement": "Binding ELISA, % of reference standard activity (% of reference standard activity)", "setting": "[14]", "value": 102}, {"measurement": "Binding ELISA, Reference Standard activity % (% of reference standard activity)", "setting": "[14]", "value": 102}, {"measurement": "Binding ELISA, % of reference standard activity (% of reference standard activity)", "setting": "[15]", "value": 93}, {"measurement": "Binding ELISA, % of reference standard activity (% of reference standard activity)", "setting": "[16]", "value": 111}]}]}
